Four molecules from patent US20230279153A1 (Regeneron, published 2023) can be followed below.

Experiment [1] addresses T1, mouse CD20 (mouse, UniProt P19437 1-291).
T1 construct: whole, on cells; also called mCD20; murine CD20
T1 sequence (looked up): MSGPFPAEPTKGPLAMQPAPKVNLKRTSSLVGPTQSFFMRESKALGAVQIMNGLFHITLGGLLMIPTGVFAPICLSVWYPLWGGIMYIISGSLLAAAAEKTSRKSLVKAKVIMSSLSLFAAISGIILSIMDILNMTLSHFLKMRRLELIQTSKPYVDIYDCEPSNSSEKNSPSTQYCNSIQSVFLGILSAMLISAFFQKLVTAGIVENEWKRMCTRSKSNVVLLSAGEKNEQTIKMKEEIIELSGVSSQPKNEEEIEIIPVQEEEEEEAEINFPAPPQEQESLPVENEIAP
The experiment is described as follows: flow cytometry on MC38/mCD20 cells. The method, then: (§1) Cells (HEK 293, MC38 over-expressing mCD20 or Jurkat over-expressing mPD1) were resuspended in FACS wash (PBS with 1% FBS) at 1×10⁶ cells/mL. The staining was performed in 1×10⁵ cells per well. The antibodies were diluted with a ratio of 1:5 from a starting concentration of 1.3×10⁻⁰⁷ M. The diluted antibodies were then added into the wells containing cells. Cells were stained for 30 min at 2-8° C. and washed twice with FACS wash buffer. APC-conjugated goat anti-human IgG (Jackson Immuno Research, 109-607-003, 1:400) was added to stain the cells for 30 min at 2-8° C. Following washing, cells were fixed in 2% paraformaldehyde for 30 min at 2-8° C. After two washes, stained cells were analyzed using BD LSRFortessa™ FACS instrument. The results were analyzed by FlowJo. FSC/SSC gates were used to select mononuclear cells.
(In general: Flow cytometry measures light scatter and fluorescence of single cells or particles in a stream.)

The target of experiment [2] is T1, mouse CD20. The experiment is described as follows: flow cytometry on HEK293/mCD20 cells. As to the method:
as §1

Experiment [3] deals with T2, mouse PD1 (mouse, UniProt Q02242 25-288).
T2 sequence (looked up): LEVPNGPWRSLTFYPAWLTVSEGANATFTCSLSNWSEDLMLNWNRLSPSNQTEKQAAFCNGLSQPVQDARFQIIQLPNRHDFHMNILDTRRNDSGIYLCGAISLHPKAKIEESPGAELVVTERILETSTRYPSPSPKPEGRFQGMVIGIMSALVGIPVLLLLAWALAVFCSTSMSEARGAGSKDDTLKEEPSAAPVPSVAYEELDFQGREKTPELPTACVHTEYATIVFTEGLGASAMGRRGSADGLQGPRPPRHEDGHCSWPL
Put plainly: cell-based or functional assay.

Experiment [4] deals with T2, mouse PD1. The experiment is described as follows: flow cytometry on Jurkat/mPD1 cells. As to the method:
as §1

In the experiment with mouse CD20 [1], “Single arm mPDL1 WT-Fc (from UniProt Q9EP73 19-239) (Fc fusion)” returned a Max MFI of 94.9 MFI.
Take REGN1932 (hIgG1 control) (antibody): the Max MFI came out at 140 MFI with mouse CD20 [1], 14.3 MFI with mouse CD20 [2] and 90.4 MFI with mouse PD1 [4]. In the experiment with mouse PD1 [3], this molecule returned a Max % inhibition, luciferase bioassay, 2.5 nM CD3 bsAb of 3%.

B1: 1B12IgG1EN (antibody)
heavy 1: QVQLQQPGAELVRPGTSVKLSCKASGYTFTSYWMHWIKQRPGQGLEWIGVIDPSDNYTKYNQKFKGKATLTVDTSSSTAYMQLSSLTSEDSAVYFCAREGYYGSSPWFAYWGQGTLVTVSSASTKGPSVFPLAPSSKSTSGGTAALGCLVKDYFPEPVTVSWNSGALTSGVHTFPAVLQSSGLYSLSSVVTVPSSSLGTQTYICNVNHKPSNTKVDKKVEPKSCDKTHTCPPCPAPEAEGAPSVFLFPPKPKDTLMISRTPEVTCVVVDVSHEDPEVKFNWYVDGVEVHNAKTKPREEQYNSTYRVVSVLTVLHQDWLNGKEYKCKVSNKALPSSIEKTISKAKGQPREPQVYTLPPCRDELTKNQVSLWCLVKGFYPSDIAVEWESNGQPENNYKTTPPVLDSDGSFFLYSKLTVDKSRWQQGNVFSCSVMHEALHNHYTQKSLSLSPGK
heavy 2: QVQLQQPGAELVRPGTSVKLSCKASGYTFTSYWMHWIKQRPGQGLEWIGVIDPSDNYTKYNQKFKGKATLTVDTSSSTAYMQLSSLTSEDSAVYFCAREGYYGSSPWFAYWGQGTLVTVSSASTKGPSVFPLAPSSKSTSGGTAALGCLVKDYFPEPVTVSWNSGALTSGVHTFPAVLQSSGLYSLSSVVTVPSSSLGTQTYICNVNHKPSNTKVDKKVEPKSCDKTHTCPPCPAPEAEGAPSVFLFPPKPKDTLMISRTPEVTCVVVDVSHEDPEVKFNWYVDGVEVHNAKTKPREEQYNSTYRVVSVLTVLHQDWLNGKEYKCKVSNKALPSSIEKTISKAKGQPREPQVCTLPPSRDELTKNQVSLSCAVKGFYPSDIAVEWESNGQPENNYKTTPPVLDSDGSFFLVSKLTVDKSRWQQGNVFSCSVMHEALHNRFTQKSLSLSPGK
light: QIVMSQSPAILSASPGEKVTMTCRARSSVSYIHWYQQKPGSSPKPWIYATSNLASGVPGRFSGSGSGTSYSLTITRVEAEDAATYYCQQWSSKPPTFGGGTKLEIKRTVAAPSVFIFPPSDEQLKSGTASVVCLLNNFYPREAKVQWKVDNALQSGNSQESVTEQDSKDSTYSLSSTLTLSKADYEKHKVYACEVTHQGLSSPVTKSFNRGEC
notes: Control, bivalent anti-mCD20 IgG with knob and hole-star heavy chains; also called 1B12lgG1EN
Regarding B1, in the experiment with mouse CD20 [1], the EC50 (usually the midpoint of the concentration-response curve) worked out at 1.71 nM and the “Max MFI” value came out at 42000 MFI. Further, in the experiment with mouse CD20 [2], the EC50 was 13.5 nM and the “Max MFI” value turned out to be 28200 MFI. Moreover, in the experiment with mouse PD1 [3], the “Max % inhibition, luciferase bioassay, 1nM CD3 bsAb” value came out at 19% and the “Max % inhibition, luciferase bioassay, 2.5 nM CD3 bsAb” value came to 0%. Also, in the experiment with mouse PD1 [4], the “Max MFI” value was 118 MFI and the binding result is given as “no binding (tested: starting concentration of 1.3×10^-07 M)”.

B2: 18B12-scFvFc (scFv, V domains shown)
VH: QVQLQQPGAELVRPGTSVKLSCKASGYTFTSYWMHWIKQRPGQGLEWIGVIDPSDNYTKYNQKFKGKATLTVDTSSSTAYMQLSSLTSEDSAVYFCAREGYYGSSPWFAYWGQGTLVTVSS
VL: QIVMSQSPAILSASPGEKVTMTCRARSSVSYIHWYQQKPGSSPKPWIYATSNLASGVPGRFSGSGSGTSYSLTITRVEAEDAATYYCQQWSSKPPTFGGGTKLEIK
On to B2, for which, in the experiment with mouse CD20 [1], the EC50 came to 18 nM and the “Max MFI” value was 48300 MFI. Moreover, in the experiment with mouse PD1 [4], the “Max MFI” value came out at 198 MFI and the binding result is “no binding (tested: starting concentration of 1.3×10^-07 M)”.
